Reference: US20050169909A1 (TANOX, published 2005)
Residue numbers refer to the chain shown, from its start. Where two headings read alike, the source gives them in different places.

B1: C21 (Fab, V domains shown)
VH: QVQLQQSGAELMKPGASVKISCKTTGYTFSMYWLEWVKQRPGHGLEWVGEISPGTFTTNYNEKFKAKATFTADTSSNTAYLQLSGLTSEDSAVYFCARFSHFSGSNYDYFDYWGQGTSLTVSS
VL: DILLTQSPAILSVSPGERVSFSCRASQSIGTNIHWYQQRTDGSPRLLIKYASESISGIPSRFSGSGSGTEFTLNINSVESEDIADYYCQQSDSWPTTFGGGTKLEIK
notes: also called parent Fab of TES-C21; murine TES-C21 Fab
B2: murine anti-IgE monoclonal antibody TES-C21 (antibody, V domains shown)
VH: B1 VH
VL: B1 VL
notes: Murine parent antibody; also called murine mAb TES-C21; parent TES-C21
B3: humanized TES-C21 Fab clone 136 (Fab, V domains shown)
VH: QVQLVQSGAEVMKPGSSVKVSCKASGYTFSMYWLEWVRQAPGHGLEWMGEISPGTFTTNYNEKFKARVTFTADTSTSTAYMELSSLRSEDTAVYYCARFSHFSGSNYDYFDYWGQGTLVTVSS
VL: EIVMTQSPATLSVSPGERATLSCRASQSIGTNIHWYQQKPGQAPRLLIYYASESISGIPARFSGSGSGTEFTLTISSLQSEDFAVYYCQQSDSWPTTFGGGTKVEIK
notes: Retains 5 murine heavy chain framework residues; light chain framework is 100% human; also called Clone ID #136; Humanized clone 136
B4: Anti-IgE CL-2C (antibody, V domains shown)
VH: B3 VH with M31W, S52D
VL: EIVMTQSPATLSVSPGERATLSCRASQSIGTNIHWYQQKPGQAPRLLIYYASESISGIPARFSGSGSGTEFTLTISSLQSEDFAVYYCQQSWSWPTTFGGGTKVEIKT
notes: ATCC PTA-5678; also called MAb 2 (CL-2C); clone 2C
B5: Anti-IgE CL-5A (antibody, V domains shown)
VH: B3 VH with M31W, S52E, F56E
VL: B4 VL
notes: ATCC PTA-5679; also called MAb 1(CL-5A); clone 5A
B6: Anti-IgE CL-5I (antibody, V domains shown)
VH: B3 VH with S52D, T57E
VL: B4 VL
notes: ATCC PTA-5680; also called MAb 3 (CL-5I)

What was measured:
[1] = biological target: T1, recombinant human IgE, SE44 (human, UniProt P01854-1 1-428); assay: ELISA titration of Fab on plate-coated SE44 (Example 6)
T1 construct: The IgE used as antigen in the ELISA screens (coated, or biotinylated); also called monoclonal human IgE (SE44); biotinylated SE44
T1 sequence (P01854 other isoform, or with tags, fused parts or gaps): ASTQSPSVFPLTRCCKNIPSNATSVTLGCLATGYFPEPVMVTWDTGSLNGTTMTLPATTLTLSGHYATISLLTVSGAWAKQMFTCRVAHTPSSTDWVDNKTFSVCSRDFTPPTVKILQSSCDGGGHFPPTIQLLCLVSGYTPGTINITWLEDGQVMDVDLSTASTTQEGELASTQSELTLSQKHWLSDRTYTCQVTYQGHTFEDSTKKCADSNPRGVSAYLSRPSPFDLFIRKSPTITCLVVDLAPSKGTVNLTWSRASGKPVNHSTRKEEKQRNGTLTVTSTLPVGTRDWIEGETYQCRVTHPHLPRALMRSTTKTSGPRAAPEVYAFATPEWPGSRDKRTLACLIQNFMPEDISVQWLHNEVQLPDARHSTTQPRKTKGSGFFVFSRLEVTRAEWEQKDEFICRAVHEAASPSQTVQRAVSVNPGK
Experimental: (§1) The constructed library was subjected to an ELISA screen for improved binding to the recombinant human IgE, SE44. Clones with binding affinity greater than murine TES-C21 Fab were isolated and sequenced. Clone ID #4, 49, 72, 76, and 136 were further characterized.
(§2) Plates were coated with 0.25 ug/mL (for purified Fab 0.1 ug/ml) SE44 in carbonate coating buffer overnight at 4° C. Coating solution was removed and the plates were blocked with 200 uL/well 3% BSA/PBS for 1 hour at 37° C.

[2] = biological target: T1, recombinant human IgE, SE44; assay: as above; remark: listed apart in the source
Experimental: as §1, §2

[3] = biological target: T2, human IgE (human, UniProt P01854-1 1-428); assay: method not stated at the table (Example 10 lists Biacore analysis); target IgE taken from context
T2 construct: it may be SE44; also called intact human IgE; biotinylated IgE
T2 sequence (P01854 other isoform, or with tags, fused parts or gaps): as above

[4] = biological target: T2, human IgE; assay: soluble receptor assay: inhibition of the binding of biotinylated IgE to plate-coated FcεRI alpha chain (Example 8)
Experimental: A 96 well assay plate suitable for ELISA was coated with 0.05 mL 0.5 μg/mL FcεRI alpha-chain receptor coating buffer (50 mM carbonate/bicarbonate, pH 9.6) for 12 hours at 4-8° C. The wells were aspirated and 25 μL blocking buffer (PBS, 1% BSA, pH 7.2) was added and incubated for 1 hour at 37° C. In a separate assay plate the samples and reference TES-C21 MAbs were titered from 200 to 0.001 μg/mL by 1:4 dilutions with assay buffer (0.5% BSA and 0.05% Tween 20, PBS, pH 7.2) and an equal volume of 100 ng/mL biotinylated IgE was added and the plate incubated for 2-3 hours at 25° C. The FcεRI—coated wells were washed three times with PBS and 0.05% TWEEN 20 and 50 μL from the sample wells were transferred and incubated with agitation for 30 minutes at 25° C. Fifty/μL/well of 1 mg/mL Streptavidin-HRP, diluted 1:2000 in assay buffer, was incubated for 30 minutes with agitation and then the plate was washed as before. Fifty μL/well of TMB substrate was added and color was developed. The reaction was stopped by adding an equal volume of 0.2 M H₂SO₄ and the absorbance measured at 450 nm.

[5] = biological target: T2, human IgE; assay: relative to parent TES-C21

Binder	EC50 (read off the curve) [1] [µg/mL]	EC50 (read off the curve) [2] [µg/mL]	Kd [3] [pM]	IC50 (read off the curve) [4] [µg/mL]	Fold Increase in Binding Affinity [5] [fold]
B1	~0.05	~0.05			
B2			614		
B3		~0.04			
B4			1.47	~0.3	417
B5			0.158		3890
B6			3.2		191
